Measurements taken from publication doi:10.1101/2022.07.28.501929.
Like-named read-outs stand apart in the source and are kept apart here.

Tests used:
[1] = molecular target: T1, Human alpha-thrombin (Factor IIa) (Homo sapiens, UniProt P00734;P00734 328-363;364-622); assay: bead fluorescence binding
[2] = molecular target: T1, Human alpha-thrombin (Factor IIa); assay: bead fluorescence binding; remark: listed apart in the source

B1: SAM16-16 (SAM16 with gap = 0) (mixed)
DNA 1: ACGTGAGAAGTCCGTGGTAGGGCAGGTTGGGGTGACTTACGACGA
DNA 2: TCTCACGTTCGTCGTA
With B1 the Kd [1] was 2010 ± 87.3 nM.

B2: SAM16 with gap = 3 (mixed)
DNA 1: ACGTGAGAAGTCCGTGGTAGGGCAGGTTGGGGTGACTTACGACGA
DNA 2: TCTCACGTTTTTCGTCGTA
For B2, the Kd [1] was 11.6 ± 2.87 nM.

B3: SAM20-20 (mixed)
DNA 1: ACGTGAGAGCAGTCCGTGGTAGGGCAGGTTGGGGTGACTCATACGACGA
DNA 2: GCTCTCACGTTCGTCGTATG
B3: binds [1].

B4: SAM22-22 (mixed)
DNA 1: ACGTGAGAGCAAGTCCGTGGTAGGGCAGGTTGGGGTGACTACATACGACGA
DNA 2: TGCTCTCACGTTCGTCGTATGT
B4: binds [1].

B5: SAM16-16 with EcoRI site, EcoRI digested (mixed)
DNA 1: AATTCCGAAGTCCGTGGTAGGGCAGGTTGGGGTGACTATCGACGG
DNA 2: TCGG
DNA 3: AATTCCGTCGAT
With B5 the Kd [2] was 56.3 ± 5.48 nM.

B6: SAM24-24 (mixed)
DNA 1: ACGTGAGAGCAGAGTCCGTGGTAGGGCAGGTTGGGGTGACTGACATACGACGA
DNA 2: CTGCTCTCACGTTCGTCGTATGTC
Work on B6 yielded a Kd [1] of 30.9 ± 5.67 nM.
